This is an account of results in patent publication US20210340257A1.

Assay [1] concerns the target human B7-H3 (CD276), on cells (human) (UniProt Q5ZPR3). Kind of assay: parallel-plate flow chamber attachment of microbubbles to MS1 B7-H3+ cells under shear.
Assay [2] has the same target. The assay is described as follows: flow chamber attachment of microbubbles to MS1hB7-H3 cells under shear.
Assay [3] addresses mouse B7-H3, on cells (mouse) (UniProt Q8VE98). Kind of assay: cell-based or functional assay.
In assay [4] the target is human B7-H3 (CD276), on cells (human) (UniProt Q5ZPR3). The assay is described as follows: cell-based or functional assay.
Chain of human B7-H3 (CD276), on cells (human) (Q5ZPR3 29-534): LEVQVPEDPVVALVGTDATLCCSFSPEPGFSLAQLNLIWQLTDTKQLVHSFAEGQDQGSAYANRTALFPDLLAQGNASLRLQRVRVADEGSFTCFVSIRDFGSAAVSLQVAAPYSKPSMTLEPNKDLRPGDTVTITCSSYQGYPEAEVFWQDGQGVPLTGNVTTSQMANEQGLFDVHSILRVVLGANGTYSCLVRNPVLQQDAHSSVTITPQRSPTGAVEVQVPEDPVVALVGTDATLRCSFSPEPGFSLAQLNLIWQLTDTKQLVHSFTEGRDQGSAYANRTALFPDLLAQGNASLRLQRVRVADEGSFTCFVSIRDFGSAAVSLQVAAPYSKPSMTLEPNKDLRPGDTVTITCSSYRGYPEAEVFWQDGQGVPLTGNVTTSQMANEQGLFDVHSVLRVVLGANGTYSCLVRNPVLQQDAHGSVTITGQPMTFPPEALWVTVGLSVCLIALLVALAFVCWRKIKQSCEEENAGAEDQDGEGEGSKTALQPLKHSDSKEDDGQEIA
Assay [5] deals with recombinant soluble human B7-H3 ectodomain protein (human) (UniProt Q5ZPR3). The assay is described as follows: flow cytometry; antibody on streptavidin magnetic beads, 3 µM soluble B7-H3, detected with APC anti-B7-H3 antibody. Background: Flow cytometry measures light scatter and fluorescence of single cells or particles in a stream.
The target is the same in assay [6]. Kind of assay: flow cytometry; unconjugated streptavidin magnetic beads, 3 µM soluble B7-H3, detected with APC anti-B7-H3 antibody.

Chain of mouse B7-H3, on cells (mouse) (Q8VE98 29-316): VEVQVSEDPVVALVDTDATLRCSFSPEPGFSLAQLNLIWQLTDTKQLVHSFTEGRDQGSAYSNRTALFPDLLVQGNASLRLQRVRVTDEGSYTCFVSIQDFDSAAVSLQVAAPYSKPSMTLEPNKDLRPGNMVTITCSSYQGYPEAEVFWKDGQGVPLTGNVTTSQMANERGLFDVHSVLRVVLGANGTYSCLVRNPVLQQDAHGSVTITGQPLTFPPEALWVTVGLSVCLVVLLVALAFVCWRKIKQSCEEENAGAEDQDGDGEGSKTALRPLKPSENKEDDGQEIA

As to “MBNon-targeted (unconjugated streptavidin-coated microbubbles) (from UniProt P22629 37-163)”, the microbubbles attached per cell in assay [1] and in assay [2] was 0.5 MB/cell each time.
Consider “biotinylated anti-B7-H3 antibody (eBiosciences, clone M3.2D7)”, for which, in assay [3], the US molecular imaging signal, mammary tumors of MMTV-PyMT transgenic mice came to 7.2 a.u; the in vivo ultrasound molecular imaging signal of tumors (transgenic mouse model) worked out at 4.82 a.u; the targeted imaging signal in transgenic mice with breast tumors turned out to be 6.22 a.u. Moreover, the US molecular imaging signal, orthotopic MDA-MB-231 tumors co-implanted with MS1hB7-H3 cells in assay [4] was 8.2 a.u. In assay [1], this substance showed a microbubbles attached per cell of 9.79 MB/cell. The % binding in assay [5] is 81%. Also, the microbubbles attached per cell in assay [2] was 9.8 MB/cell.
Turning to “unconjugated streptavidin magnetic beads (from UniProt P22629 37-163)”, in assay [6], the % binding worked out at 1%.
